# Experimental data taken from US20220332821A1 (Novartis, published 2022).
# T1: soluble BCMA (UniProt Q02223 1-54)
# T1 sequence (looked up): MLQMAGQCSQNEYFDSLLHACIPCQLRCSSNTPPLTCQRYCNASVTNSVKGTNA
# T2: BCMA on KMS11 myeloma cells (UniProt Q02223 1-184)
# T2 sequence (looked up): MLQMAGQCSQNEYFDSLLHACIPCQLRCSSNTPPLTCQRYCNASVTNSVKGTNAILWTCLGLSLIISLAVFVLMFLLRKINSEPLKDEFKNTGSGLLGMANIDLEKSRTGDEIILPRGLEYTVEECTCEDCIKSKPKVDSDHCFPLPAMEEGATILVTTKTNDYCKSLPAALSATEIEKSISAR
# T3: Human CD3-biotin (human)
# T3 chain: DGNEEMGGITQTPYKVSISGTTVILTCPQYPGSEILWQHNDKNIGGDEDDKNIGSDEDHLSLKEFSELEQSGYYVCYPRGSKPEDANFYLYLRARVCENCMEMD
# T4: Mouse BCMA-Fc (mouse, UniProt O88472 1-49, limits assumed, not fully specified)
# T4 construct: not shown: Fc part
# T4 chain (looked up): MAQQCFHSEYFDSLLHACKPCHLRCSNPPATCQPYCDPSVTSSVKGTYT
# How the values were obtained:
# soluble BCMA = biological target: T1, soluble BCMA; experiment: cell-based or functional assay
# [1] = biological target: T2, BCMA on KMS11 myeloma cells; experiment: cell-based or functional assay
# Human CD3-biotin = biological target: T3, Human CD3-biotin; experiment: method not stated; mean of three biological replicates
# Cyno BCMA-Fc = biological target: T5, Cyno BCMA-Fc (cynomolgus, UniProt A0A2K5UD97 1-53); experiment: as above
# T5 construct: not shown: Fc part
# T5 sequence (A0A2K5UD97 entry or part of it): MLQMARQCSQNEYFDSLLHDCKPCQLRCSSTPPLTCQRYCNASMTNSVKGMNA
# Mouse BCMA-Fc = biological target: T4, Mouse BCMA-Fc; experiment: as above
binder,measurement,setting,value
"BSBM3 (bispecific antibody, Heterodimeric IgG1 format: anti-BCMA Fab half antibody and anti-CD3 scFv-Fc half antibody; also called BSMB3) heavy: not shown light: QSALTQPASVSGSPGQSITISCTGTSSDVGGYNYVSWYQQHPGKAPKLMIYDVSNRLRGVSNRFSGSKSGNTASLTISGLQAEDEADYYCSSYTSSSALYVFGSGTKVTVLGQPKAAPSVTLFPPSSEELQANKATLVCLISDFYPGAVTVAWKADSSPVKAGVETTTPSKQSNNKYAASSYLSLTPEQWKSHRSYSCQVTHEGSTVEKTVAPTECS not shown","EC30 in RTCC assay, fold increase with 30 ng/mL soluble BCMA",soluble BCMA,6 fold
same,"EC30 in RTCC assay, fold increase with 100 ng/mL soluble BCMA",soluble BCMA,15 fold
same,"EC30 in RTCC assay, fold increase with 300 ng/mL soluble BCMA",soluble BCMA,41 fold
same,EC50 in RTCC assay (without added recombinant soluble BCMA),[1],~0.07 µg/mL
same,"EC50 in RTCC assay, BSBM3 with AL-102 (gamma secretase inhibitor that raises surface BCMA)",[1],0.02 nM
same,"EC50 of KMS11-Luc cell death in RTCC assay, BSBM3 alone",[1],1 nM
same,Kd,Human CD3-biotin,8.78 nM
same,Kd,Cyno BCMA-Fc,1.29 nM
same,Kd,Mouse BCMA-Fc,1.15 nM
